Measurements as given in patent publication US20160305952A1 (ROCHE SEQUENCING SOLUTIONS, published 2016).

Experiments:
streptavidin [1] = molecular target: T1, streptavidin (UniProt P22629 37-163, limits assumed); assay: SPR, Biacore X100, streptavidin on CM5 chip, peptide in solution
T1 construct: amine-coupled to a CM5 chip for SPR; also called SA
Description: (§1) A selection of streptavidin peptide binders listed in Table 15 were synthesized using standard column-based synthesis techniques by UW Biotechnology center (Madison, Wis.) or by Peptide2.0 (Chantilly, Va.) at 98-99% purity. Strep-tag II peptide NH2-[…]-COOH was purchased from IBA GmbH (Goettingen, Germany). Synthesized peptides were then characterized by Surface Plasmon Resonance (SPR) to identify binding characteristics including the association rate constant (kₛ), dissociation rate constant (kd), and equilibrium dissociation […] (kd/kₐ=KD). In one aspect, SPR experiments were performed by using Biacore X100 instrument (GE Healthcare). Preliminarily, 60 μl of 100 μg/ml streptavidin in 10 mM Na-acetate, pH5.0 was immobilized to flow cell 2 (Fc2) of a sensor chip CM5 (GE Healthcare) using Amine Coupling Kit (GE Healthcare) at 20° C. for 6 min. Peptide stock solutions were prepared at 5 or 10 mM concentration in water and diluted in HBS-EP+ (GE Healthcare) buffer before SPR experiments. Peptide binding was performed in a multiple kinetics mode using HBS-EP+ as a running buffer and 0.2 M NaCl, 10 mM NaOH or 10 mM HCl-glycine, […] as regeneration buffer. Binding kinetics parameters were calculated with Biacore X100 software.

streptavidin [2] = molecular target: T1, streptavidin; assay: SPR, Biacore X100, streptavidin on CM5 chip, peptide in solution; second KD value printed for the same peptide
Description: as §1

streptavidin [3] = molecular target: T1, streptavidin; assay: SPR
Description: as §1

T1 sequence (P22629 37-163 limits assumed): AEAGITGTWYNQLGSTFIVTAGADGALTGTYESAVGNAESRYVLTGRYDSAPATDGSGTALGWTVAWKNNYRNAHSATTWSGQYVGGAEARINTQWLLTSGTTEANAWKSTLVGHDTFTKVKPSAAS

Binder	Kd (streptavidin [1]) [µM]	Kd (streptavidin [2]) [µM]	fold change in KD as compared with the parent peptide … (streptavidin [3]) [fold]	koff (streptavidin [1]) [s⁻¹]	kon (streptavidin [1]) [M⁻¹ s⁻¹]
H-EWVHPQFEQKAK-NH2 (free peptide) [NH2-EWVHPQFEQKAK-amide]	5.68	5.87	–	–	–
H-RDPAPAWAHGGG-NH2 (free peptide) [NH2-RDPAPAWAHGGG-amide]	4.66	–	≥ 100	0.0696	14900
